{
  "source": "paper PMC3084282",
  "key": {"[1]": {"target": "α-crystallin (bovine lens) (bovine (endogenous in calf lens)) (UniProt P02470)", "sequence (P02470 whole entry, chain 1 of 2)": "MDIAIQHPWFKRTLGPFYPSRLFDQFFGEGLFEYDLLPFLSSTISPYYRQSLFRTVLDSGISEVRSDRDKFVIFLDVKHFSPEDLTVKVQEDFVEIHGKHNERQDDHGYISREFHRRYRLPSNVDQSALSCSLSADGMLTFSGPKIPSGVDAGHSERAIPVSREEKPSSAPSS", "sequence (P02510 whole entry, chain 2 of 2, further chain)": "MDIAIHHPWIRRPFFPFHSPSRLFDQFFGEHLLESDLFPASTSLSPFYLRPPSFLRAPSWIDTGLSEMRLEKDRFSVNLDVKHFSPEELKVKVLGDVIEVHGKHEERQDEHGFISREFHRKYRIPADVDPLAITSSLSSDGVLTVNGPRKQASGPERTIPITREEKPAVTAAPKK"}, "[2]": {"target": "α-crystallin (bovine lens) (bovine (endogenous in calf lens)) (UniProt P02470)", "remark": "listed apart in the source"}},
  "data": [
    {"substance": "αA-(66-80) peptide", "values": [
      {"measurement": "Bis-ANS fluorescence (hydrophobicity) of α-crystallin (100 µg) with 10 or 20 µg of peptide, 50 mM phosphate buffer pH 7.2, 60 min", "setting": "[1]", "value": 30, "unit": "%"},
      {"measurement": "precipitation of soluble α-crystallin from 200 µg of CLE after incubation with increasing amounts of peptide (up to 50 µg), 16 h, 37°C; supernatant analysed by MALS", "setting": "[2]", "value": "> 50", "unit": "%"}
    ]}
  ]
}
